# From US8273855 (JIANGSU NOVAVAC BIO TEC, dated 2012)
# T1: Caspr (native, adult rat brain membrane extracts) (rat, UniProt P97846 21-1381)
# T1 construct: also called Paranodin; contactin-associated protein
# T1 sequence (looked up): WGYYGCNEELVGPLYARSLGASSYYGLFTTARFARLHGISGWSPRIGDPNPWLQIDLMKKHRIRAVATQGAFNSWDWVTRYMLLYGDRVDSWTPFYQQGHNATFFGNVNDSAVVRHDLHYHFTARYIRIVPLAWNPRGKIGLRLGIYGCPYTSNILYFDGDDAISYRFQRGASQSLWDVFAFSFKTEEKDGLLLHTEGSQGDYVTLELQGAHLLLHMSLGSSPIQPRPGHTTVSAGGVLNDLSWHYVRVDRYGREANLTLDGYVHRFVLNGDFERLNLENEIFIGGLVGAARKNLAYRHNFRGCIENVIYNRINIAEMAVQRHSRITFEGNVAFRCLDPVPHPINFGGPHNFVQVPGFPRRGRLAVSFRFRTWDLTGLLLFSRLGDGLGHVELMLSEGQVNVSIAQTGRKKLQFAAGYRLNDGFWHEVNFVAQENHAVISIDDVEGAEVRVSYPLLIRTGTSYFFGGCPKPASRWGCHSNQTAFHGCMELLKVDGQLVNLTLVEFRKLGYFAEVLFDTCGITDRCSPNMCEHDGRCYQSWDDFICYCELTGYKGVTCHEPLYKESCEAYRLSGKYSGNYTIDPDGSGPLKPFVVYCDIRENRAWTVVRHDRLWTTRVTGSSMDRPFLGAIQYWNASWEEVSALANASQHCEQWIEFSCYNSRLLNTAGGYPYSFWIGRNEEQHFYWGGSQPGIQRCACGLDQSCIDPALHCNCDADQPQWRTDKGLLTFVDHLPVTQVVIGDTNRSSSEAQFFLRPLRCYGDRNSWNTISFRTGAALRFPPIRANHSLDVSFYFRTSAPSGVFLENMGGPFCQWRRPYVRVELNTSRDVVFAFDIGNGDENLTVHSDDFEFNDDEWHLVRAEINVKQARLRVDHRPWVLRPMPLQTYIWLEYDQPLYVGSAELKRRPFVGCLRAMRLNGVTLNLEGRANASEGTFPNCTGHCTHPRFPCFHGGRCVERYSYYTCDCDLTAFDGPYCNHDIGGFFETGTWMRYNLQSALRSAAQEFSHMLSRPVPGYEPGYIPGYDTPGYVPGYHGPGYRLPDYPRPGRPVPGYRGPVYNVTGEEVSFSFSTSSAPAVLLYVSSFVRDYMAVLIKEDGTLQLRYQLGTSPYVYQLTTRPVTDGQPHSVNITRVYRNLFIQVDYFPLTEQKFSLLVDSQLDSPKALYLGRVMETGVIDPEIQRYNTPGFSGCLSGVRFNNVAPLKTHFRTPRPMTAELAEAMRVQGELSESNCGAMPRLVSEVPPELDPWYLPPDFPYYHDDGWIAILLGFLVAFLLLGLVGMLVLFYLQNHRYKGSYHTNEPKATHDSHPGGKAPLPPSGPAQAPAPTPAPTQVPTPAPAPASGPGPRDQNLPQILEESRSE
# T2: F3 on F3-transfected CHO cells (UniProt P12960 21-1001)
# T2 construct: whole, on cells; also called F3-CHO; F3-expressing CHO cells
# T2 sequence (looked up): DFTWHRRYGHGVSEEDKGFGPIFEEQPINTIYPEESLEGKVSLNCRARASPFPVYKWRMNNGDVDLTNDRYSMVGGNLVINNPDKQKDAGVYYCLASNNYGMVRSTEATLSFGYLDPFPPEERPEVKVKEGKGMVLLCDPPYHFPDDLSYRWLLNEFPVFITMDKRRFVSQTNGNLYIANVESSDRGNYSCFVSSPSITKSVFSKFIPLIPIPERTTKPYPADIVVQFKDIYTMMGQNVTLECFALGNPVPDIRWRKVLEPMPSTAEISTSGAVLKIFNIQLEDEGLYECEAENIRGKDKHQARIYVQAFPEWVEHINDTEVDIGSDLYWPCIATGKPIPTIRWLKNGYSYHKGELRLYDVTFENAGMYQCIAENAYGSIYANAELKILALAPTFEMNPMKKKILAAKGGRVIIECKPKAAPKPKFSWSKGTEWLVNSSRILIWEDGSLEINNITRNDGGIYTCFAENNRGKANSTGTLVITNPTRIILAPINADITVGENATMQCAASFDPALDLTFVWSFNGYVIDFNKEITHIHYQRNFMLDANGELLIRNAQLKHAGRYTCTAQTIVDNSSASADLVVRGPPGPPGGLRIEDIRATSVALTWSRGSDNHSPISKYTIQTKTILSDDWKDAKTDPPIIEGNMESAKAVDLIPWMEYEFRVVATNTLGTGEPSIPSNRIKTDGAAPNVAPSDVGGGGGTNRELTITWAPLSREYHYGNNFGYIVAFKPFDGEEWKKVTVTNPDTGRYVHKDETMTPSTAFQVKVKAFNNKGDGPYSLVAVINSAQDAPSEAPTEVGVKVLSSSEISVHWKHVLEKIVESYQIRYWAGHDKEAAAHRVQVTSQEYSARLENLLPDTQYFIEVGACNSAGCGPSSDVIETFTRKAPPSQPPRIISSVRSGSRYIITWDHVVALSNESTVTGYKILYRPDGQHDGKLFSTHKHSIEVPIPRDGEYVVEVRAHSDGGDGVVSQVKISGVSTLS
# Key:
# Notch2 on OLN-93 cells = biological target: T3, Notch2 on OLN-93 cells (rat, UniProt Q9QW30 26-2471); assay: OLN-93 cell adhesion to F3-Fc substrate with antibody blockade
# T3 construct: whole, on cells; also called OLN cells
# T3 sequence (Q9QW30 26-2471): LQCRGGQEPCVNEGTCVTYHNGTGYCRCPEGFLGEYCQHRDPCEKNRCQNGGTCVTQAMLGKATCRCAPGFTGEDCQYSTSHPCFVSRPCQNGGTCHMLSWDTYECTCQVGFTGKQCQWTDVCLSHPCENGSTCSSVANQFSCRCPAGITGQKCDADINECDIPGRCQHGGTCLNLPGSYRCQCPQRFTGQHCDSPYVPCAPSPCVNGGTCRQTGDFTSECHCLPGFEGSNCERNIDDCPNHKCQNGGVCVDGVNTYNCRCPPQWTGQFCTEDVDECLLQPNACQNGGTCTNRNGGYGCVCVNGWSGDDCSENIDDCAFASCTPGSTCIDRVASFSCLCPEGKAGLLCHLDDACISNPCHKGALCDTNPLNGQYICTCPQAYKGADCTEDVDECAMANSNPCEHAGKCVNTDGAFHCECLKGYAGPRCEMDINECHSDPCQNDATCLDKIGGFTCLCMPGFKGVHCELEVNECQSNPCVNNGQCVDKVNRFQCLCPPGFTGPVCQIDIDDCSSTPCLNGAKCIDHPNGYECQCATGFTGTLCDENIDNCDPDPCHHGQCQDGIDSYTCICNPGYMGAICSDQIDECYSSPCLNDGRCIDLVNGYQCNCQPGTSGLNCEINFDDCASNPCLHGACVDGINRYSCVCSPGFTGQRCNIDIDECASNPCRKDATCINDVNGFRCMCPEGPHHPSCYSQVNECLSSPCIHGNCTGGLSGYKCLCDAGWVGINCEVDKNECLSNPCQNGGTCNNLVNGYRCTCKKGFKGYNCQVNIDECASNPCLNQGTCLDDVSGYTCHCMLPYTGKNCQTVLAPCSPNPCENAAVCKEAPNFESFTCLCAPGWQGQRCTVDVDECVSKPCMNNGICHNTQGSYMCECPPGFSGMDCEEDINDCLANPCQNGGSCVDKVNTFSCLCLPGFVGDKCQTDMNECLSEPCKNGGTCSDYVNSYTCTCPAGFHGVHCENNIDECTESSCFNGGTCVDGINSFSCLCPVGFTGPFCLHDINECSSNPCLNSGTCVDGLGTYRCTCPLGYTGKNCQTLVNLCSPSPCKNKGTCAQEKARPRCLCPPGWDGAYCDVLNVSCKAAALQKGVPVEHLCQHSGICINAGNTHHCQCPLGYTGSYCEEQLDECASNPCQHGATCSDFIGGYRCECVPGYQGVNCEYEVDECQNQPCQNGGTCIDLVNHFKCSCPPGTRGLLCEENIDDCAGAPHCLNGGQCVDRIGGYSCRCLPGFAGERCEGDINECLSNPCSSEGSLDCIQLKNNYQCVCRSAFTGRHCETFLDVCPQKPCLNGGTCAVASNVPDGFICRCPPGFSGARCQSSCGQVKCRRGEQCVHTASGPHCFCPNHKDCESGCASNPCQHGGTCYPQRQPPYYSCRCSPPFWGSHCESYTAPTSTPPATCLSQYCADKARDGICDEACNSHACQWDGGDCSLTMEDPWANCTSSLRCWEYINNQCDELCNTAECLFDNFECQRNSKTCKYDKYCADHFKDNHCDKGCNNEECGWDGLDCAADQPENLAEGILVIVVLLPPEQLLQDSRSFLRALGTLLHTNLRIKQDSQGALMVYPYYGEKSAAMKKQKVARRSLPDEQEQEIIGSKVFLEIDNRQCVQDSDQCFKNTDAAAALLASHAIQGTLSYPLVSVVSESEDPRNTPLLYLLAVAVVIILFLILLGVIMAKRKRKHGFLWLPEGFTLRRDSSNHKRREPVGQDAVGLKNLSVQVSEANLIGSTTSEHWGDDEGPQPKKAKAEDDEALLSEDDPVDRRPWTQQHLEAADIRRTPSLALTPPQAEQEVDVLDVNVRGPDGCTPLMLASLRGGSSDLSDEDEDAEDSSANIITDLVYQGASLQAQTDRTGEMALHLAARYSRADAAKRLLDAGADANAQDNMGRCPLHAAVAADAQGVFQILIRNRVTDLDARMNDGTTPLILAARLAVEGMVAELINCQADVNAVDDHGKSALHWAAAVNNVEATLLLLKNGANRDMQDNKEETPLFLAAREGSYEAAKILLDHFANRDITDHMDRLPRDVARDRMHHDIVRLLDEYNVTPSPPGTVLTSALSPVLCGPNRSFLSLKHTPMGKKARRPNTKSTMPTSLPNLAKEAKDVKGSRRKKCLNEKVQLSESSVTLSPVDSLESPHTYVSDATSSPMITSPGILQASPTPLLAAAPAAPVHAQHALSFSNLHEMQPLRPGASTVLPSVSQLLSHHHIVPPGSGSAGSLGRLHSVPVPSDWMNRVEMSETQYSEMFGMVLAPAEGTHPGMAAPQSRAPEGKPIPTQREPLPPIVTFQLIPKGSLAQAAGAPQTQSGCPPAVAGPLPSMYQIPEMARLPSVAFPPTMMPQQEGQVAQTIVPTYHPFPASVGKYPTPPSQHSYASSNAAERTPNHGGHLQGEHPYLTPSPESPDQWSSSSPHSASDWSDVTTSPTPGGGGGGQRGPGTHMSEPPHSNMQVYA
# Description: This was carried out as previously described (Xiao et al, 1996). Briefly, 35 mm tissue culture petri dishes (Becton Dickinson) were coated with methanol solubilized nitrocellulose (Lagenaur and Lemon, 1987) and air-dried under a sterile hood.
# [1] = biological target: Notch on primary rat oligodendrocytes and oligodendrocyte precursor cells (rat, UniProt Q07008 19-2531); assay: cell-based or functional assay
# Notch on primary rat oligodendrocytes and oligodendrocyte precursor cells, sequence (Q07008 19-2531): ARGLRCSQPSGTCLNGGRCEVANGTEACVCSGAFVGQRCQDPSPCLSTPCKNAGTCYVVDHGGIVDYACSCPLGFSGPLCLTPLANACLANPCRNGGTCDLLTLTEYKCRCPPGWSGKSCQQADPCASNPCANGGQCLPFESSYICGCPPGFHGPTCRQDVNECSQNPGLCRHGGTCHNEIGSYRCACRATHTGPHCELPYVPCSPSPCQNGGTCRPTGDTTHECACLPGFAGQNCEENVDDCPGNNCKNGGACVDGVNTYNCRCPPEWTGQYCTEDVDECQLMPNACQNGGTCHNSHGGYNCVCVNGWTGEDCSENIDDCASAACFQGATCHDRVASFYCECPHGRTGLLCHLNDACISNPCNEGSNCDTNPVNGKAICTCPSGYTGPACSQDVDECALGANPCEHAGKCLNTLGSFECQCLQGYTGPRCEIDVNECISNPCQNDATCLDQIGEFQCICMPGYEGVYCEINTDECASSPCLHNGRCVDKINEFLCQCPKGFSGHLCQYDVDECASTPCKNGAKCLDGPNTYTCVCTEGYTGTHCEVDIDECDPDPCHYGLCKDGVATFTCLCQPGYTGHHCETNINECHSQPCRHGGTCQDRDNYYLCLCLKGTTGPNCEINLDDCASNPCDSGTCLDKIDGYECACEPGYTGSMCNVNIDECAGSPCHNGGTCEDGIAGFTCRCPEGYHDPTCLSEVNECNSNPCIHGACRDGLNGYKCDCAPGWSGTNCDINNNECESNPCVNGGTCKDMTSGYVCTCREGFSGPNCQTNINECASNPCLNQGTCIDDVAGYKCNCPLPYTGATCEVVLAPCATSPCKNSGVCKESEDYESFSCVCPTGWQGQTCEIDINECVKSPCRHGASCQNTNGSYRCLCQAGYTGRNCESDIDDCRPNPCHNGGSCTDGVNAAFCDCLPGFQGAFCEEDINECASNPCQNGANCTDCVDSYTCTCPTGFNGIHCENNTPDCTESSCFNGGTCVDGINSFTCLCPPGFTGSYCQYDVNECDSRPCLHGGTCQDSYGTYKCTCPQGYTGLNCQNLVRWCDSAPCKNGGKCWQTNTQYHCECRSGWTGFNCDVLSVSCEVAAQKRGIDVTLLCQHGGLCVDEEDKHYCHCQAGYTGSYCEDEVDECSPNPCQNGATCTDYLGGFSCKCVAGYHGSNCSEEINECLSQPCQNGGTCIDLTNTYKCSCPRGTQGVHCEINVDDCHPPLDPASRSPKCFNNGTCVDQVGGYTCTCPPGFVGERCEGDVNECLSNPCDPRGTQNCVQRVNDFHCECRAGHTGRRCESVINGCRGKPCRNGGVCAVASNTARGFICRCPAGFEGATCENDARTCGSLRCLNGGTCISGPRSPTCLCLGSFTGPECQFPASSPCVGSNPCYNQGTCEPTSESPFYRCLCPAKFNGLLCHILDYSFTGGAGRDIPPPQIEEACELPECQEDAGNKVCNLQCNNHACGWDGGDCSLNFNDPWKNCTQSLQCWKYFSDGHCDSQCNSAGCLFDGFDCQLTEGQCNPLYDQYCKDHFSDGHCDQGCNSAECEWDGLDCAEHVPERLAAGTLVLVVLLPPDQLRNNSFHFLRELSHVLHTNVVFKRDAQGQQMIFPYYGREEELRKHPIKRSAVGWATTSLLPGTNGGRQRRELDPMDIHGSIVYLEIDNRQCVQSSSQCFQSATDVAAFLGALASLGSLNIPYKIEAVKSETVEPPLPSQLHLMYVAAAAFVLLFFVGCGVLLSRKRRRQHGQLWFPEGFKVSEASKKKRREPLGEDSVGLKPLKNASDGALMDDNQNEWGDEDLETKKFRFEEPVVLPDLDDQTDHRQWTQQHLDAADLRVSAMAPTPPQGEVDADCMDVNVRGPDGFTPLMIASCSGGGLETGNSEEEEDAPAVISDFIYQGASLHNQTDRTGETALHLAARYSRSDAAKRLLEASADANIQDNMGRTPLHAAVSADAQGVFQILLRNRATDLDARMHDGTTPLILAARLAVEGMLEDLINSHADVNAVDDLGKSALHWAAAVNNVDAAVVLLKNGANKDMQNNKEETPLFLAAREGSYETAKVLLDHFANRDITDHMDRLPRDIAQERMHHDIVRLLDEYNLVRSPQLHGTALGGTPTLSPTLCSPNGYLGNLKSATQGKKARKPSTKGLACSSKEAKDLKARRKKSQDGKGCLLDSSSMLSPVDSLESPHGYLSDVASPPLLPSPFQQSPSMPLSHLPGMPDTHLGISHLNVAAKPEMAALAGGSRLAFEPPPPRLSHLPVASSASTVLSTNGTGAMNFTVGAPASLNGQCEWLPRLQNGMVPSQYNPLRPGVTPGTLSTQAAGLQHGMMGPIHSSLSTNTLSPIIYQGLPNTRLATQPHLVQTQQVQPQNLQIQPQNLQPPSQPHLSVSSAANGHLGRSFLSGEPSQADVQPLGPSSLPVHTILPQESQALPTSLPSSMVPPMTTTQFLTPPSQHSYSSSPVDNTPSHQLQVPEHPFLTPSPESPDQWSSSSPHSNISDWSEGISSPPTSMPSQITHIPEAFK
# [2] = biological target: myc-tagged full-length mouse Notch1 on transfected OLN cells (mouse, UniProt Q01705 19-2531); assay: cell-based or functional assay
# [3] = biological target: T1, Caspr (native, adult rat brain membrane …); assay: co-immunoprecipitation from adult rat brain membrane extracts, Western blot
# Description: Briefly, brain tissue was homogenized in ice-cold homogenizing buffer (320 mM sucrose, 10 mM Tris-HCl pH7.4, 1 mM NaHCO_3 pH7.4, 1 mM MgCl_2) supplemented with 1% protease inhibitor cocktail (Amersham), and subsequently centrifuged at 5,000 g for 15 min. The supernatant was collected and spun at 60,000 g (Beckman ultracentrifuge) for 60 min at 4° C. Pellets were then dissolved in a lysis buffer (10 mM Tris-HCl pH9, 150 mM NaCl, 0.5% Triton X-100, 1% sodium deoxycholate (DOC), 0.5% SDS, 2 mM EDTA, and 1% protease inhibitor cocktail) for subsequent experiments.
# [4] = biological target: T2, F3 on F3-transfected CHO cells; assay: cell adhesion assay, F3-CHO cells on coated substrate
binder,measurement,setting,value
"F3-Fc (Fc fusion, mouse, UniProt P12960 21-1001, looked up, domain: F3 without the GPI-anchor; also called F3 substrate; soluble F3; not shown: human IgG Fc) DFTWHRRYGHGVSEEDKGFGPIFEEQPINTIYPEESLEGKVSLNCRARASPFPVYKWRMNNGDVDLTNDRYSMVGGNLVINNPDKQKDAGVYYCLASNNYGMVRSTEATLSFGYLDPFPPEERPEVKVKEGKGMVLLCDPPYHFPDDLSYRWLLNEFPVFITMDKRRFVSQTNGNLYIANVESSDRGNYSCFVSSPSITKSVFSKFIPLIPIPERTTKPYPADIVVQFKDIYTMMGQNVTLECFALGNPVPDIRWRKVLEPMPSTAEISTSGAVLKIFNIQLEDEGLYECEAENIRGKDKHQARIYVQAFPEWVEHINDTEVDIGSDLYWPCIATGKPIPTIRWLKNGYSYHKGELRLYDVTFENAGMYQCIAENAYGSIYANAELKILALAPTFEMNPMKKKILAAKGGRVIIECKPKAAPKPKFSWSKGTEWLVNSSRILIWEDGSLEINNITRNDGGIYTCFAENNRGKANSTGTLVITNPTRIILAPINADITVGENATMQCAASFDPALDLTFVWSFNGYVIDFNKEITHIHYQRNFMLDANGELLIRNAQLKHAGRYTCTAQTIVDNSSASADLVVRGPPGPPGGLRIEDIRATSVALTWSRGSDNHSPISKYTIQTKTILSDDWKDAKTDPPIIEGNMESAKAVDLIPWMEYEFRVVATNTLGTGEPSIPSNRIKTDGAAPNVAPSDVGGGGGTNRELTITWAPLSREYHYGNNFGYIVAFKPFDGEEWKKVTVTNPDTGRYVHKDETMTPSTAFQVKVKAFNNKGDGPYSLVAVINSAQDAPSEAPTEVGVKVLSSSEISVHWKHVLEKIVESYQIRYWAGHDKEAAAHRVQVTSQEYSARLENLLPDTQYFIEVGACNSAGCGPSSDVIETFTRKAPPSQPPRIISSVRSGSRYIITWDHVVALSNESTVTGYKILYRPDGQHDGKLFSTHKHSIEVPIPRDGEYVVEVRAHSDGGDGVVSQVKISGVSTLS",binding result,Notch2 on OLN-93 cells,binds
same,"MAG mRNA, real-time RT-PCR, primary oligodendrocytes on protein substrate against BSA",[1],~8 fold
same,"MAG transcripts, real-time PCR, primary OLs on F3 substrate against BSA",[1],~16 fold
same,nuclear NICD staining intensity,[2],2 fold
"NB-3-His (ligand, rat) ESRFTRPIFIQEPQDVIFPLDLSRSEIILSCTASGYPSPHYRWKQNGTDIDFSMTYHYRLDGGSLAISSPRTDQDIGIYQCLATNPVGTILSRKAKLQFAYIEDFETKSRSTVSVREGQGVVLLCGPPPHFGELSYDWTFNDNPLYVQEDKRRFVSQNTGNLYIAKVEPSDVGNYTCFVTNKEAHRSVQGPPTPLVQRTDGVMGEYEPKIEVRFPETIQAAKDSSVKLECFALGNPVPDISWRRLDGSPMPGKVKYSNSQATLEIPKFQQEDEGFYECVAGNLRGRNLAKGQLIFYAPPEWEQKIQNTYLSIYDSLFWECKASGNPNPSYTWLKNGERLNTEERIQTENGTLIITMLNVSDSGIYQCAAENKYQTIYANAELRVLASAPDFSKNPIKKISVVQVGGDISIECKPNAFPKASISWKRGTENLKQSKRVFFLEDGSLKICNVTRSDAGSYTCVATNQFGNGKSSGSLIVKERTVITVPPSKMDVTVGESIVLPCQVSHDPTMEVLFVWYFNGDVIDLKKGVAHFERIGGESVGDLMIRNIQLGHSGKYLCTVQTTLERLSAVADIIVRGPPGPPEDVKVEHISSTTSQLSWRPGPDNNSPIQIFTIQTRTPFSVGWQAVATVPEILNGQTYNATVIGLSPWVEYEFRVVAGNNIGIGEPSKPSELLRTKASIPNVAPVNINGGGGSRSELVITWEPIPEELQNGEGFGYIIMFRPVGSTTWMKEKVALVESSKFIYRNESIMPLSPFEVKVGVYNNEGEGSLSTVSIVYSGEDEPRLAPRGTSVQSFSASDMEVSWNAIAWNRNTGRVLGYEVLYWTDNSKESMIGKIRVSGNVTTKNITGLRANTIYFASVRAYNTAGTGPSSPPVNVTTKKSPPSQPPANIAWKLSNSKLCLNWEHVKTMENESEVLGYKILYRQNRQSKTHVLETNNTSAELLVPFEEDYLIEIRTVSDGGDGSSSEEIRIPKMSSLSSHHHHHH","MAG mRNA, real-time RT-PCR, primary oligodendrocytes on protein substrate against BSA",[1],~8 fold
"NB-3 (native, rat brain) (ligand, UniProt P97528 20-999, looked up) ESRFTRPIFIQEPQDVIFPLDLSRSEIILSCTASGYPSPHYRWKQNGTDIDFSMTYHYRLDGGSLAISSPRTDQDIGIYQCLATNPVGTILSRKAKLQFAYIEDFETKSRSTVSVREGQGVVLLCGPPPHFGELSYDWTFNDNPLYVQEDKRRFVSQNTGNLYIAKVEPSDVGNYTCFVTNKEAHRSVQGPPTPLVQRTDGVMGEYEPKIEVRFPETIQAAKDSSVKLECFALGNPVPDISWRRLDGSPMPGKVKYSNSQATLEIPKFQQEDEGFYECVAGNLRGRNLAKGQLIFYAPPEWEQKIQNTYLSIYDSLFWECKASGNPNPSYTWLKNGERLNTEERIQTENGTLIITMLNVSDSGIYQCAAENKYQTIYANAELRVLASAPDFSKNPIKKISVVQVGGDISIECKPNAFPKASISWKRGTENLKQSKRVFFLEDGSLKICNVTRSDAGSYTCVATNQFGNGKSSGSLIVKERTVITVPPSKMDVTVGESIVLPCQVSHDPTMEVLFVWYFNGDVIDLKKGVAHFERIGGESVGDLMIRNIQLGHSGKYLCTVQTTLERLSAVADIIVRGPPGPPEDVKVEHISSTTSQLSWRPGPDNNSPIQIFTIQTRTPFSVGWQAVATVPEILNGQTYNATVIGLSPWVEYEFRVVAGNNIGIGEPSKPSELLRTKASIPNVAPVNINGGGGSRSELVITWEPIPEELQNGEGFGYIIMFRPVGSTTWMKEKVALVESSKFIYRNESIMPLSPFEVKVGVYNNEGEGSLSTVSIVYSGEDEPRLAPRGTSVQSFSASDMEVSWNAIAWNRNTGRVLGYEVLYWTDNSKESMIGKIRVSGNVTTKNITGLRANTIYFASVRAYNTAGTGPSSPPVNVTTKKSPPSQPPANIAWKLSNSKLCLNWEHVKTMENESEVLGYKILYRQNRQSKTHVLETNNTSAELLVPFEEDYLIEIRTVSDGGDGSSSEEIRIPKMSSLSS",binding result,[3],no binding
"GST-Nogo-66 (other, UniProt Q9NQC3 1055-1120, looked up, also called Nogo-66-GST; recombinant GST-Nogo-66 protein; not shown: glutathione S-transferase (GST) encoded by vector pGEX-KG) RIYKGVIQAIQKSDEGHPFRAYLESEVAISEELVQKYSNSALGHVNCTIKELRRLFLVDDLVDSLK",binding result,[4],no binding
